# US20240034786A1 (WUXI BIOLOGICS IRELAND, published 2024)
# Where a chain is given by its changes, count along the chain named. In names and notes the source's numbering stands.
# B1: W3195-1.53.1-uIgG1L (antibody)
# heavy: not shown
# light: SYELTQPPSVSVSPGQTANITCSGDKLGDKFASWYQQKSGQSPVVVIYQDNKRPSGFPERFSGSNSGNTATLTISGTQAMDEADYYCQAWDSSIVVFGGGTKLTVLGQPKAAPSVTLFPPSSEELQANKATLVCLISDFYPGAVTVAWKADSSPVKAGVETTTPSKQSNNKYAASSYLSLTPEQWKSHRSYSCQVTHEGSTVEKTVAPTECS
# notes: Fully human IgG1 from an OmniRat hybridoma, converted to human IgG1; also called parental antibody; parental mAb
# B2: W3195-1.53.1-p3-uIgG1L (antibody)
# heavy: not shown
# light: B1 light with T21A
# notes: also called W3195-p3 antibody
# B3: W3195-1.53.1-p4-uIgG1LV320 (antibody, V domains shown)
# VH: QVQLQESGPGLVKPSETLSLTCTVSGGSVISDNYYWTWVRQPPGKGLEFIGYIYYRGSTNYNPSLKNRVIISIDTSRNQFSLDLNSVTAADTAVYYCARDRRTGNALPFDNWGQGTLVTVSS
# VL: SYELTQPPSVSVSPGQTAQITCSGDKLGDKFASWYQQKSGQSPVVVIYQDNKRPSGFPERFSGSNSGNTATLTISGTQAMDEADYYCQAWDSSIVVFGGGTKLTVLG
# notes: V320 = IgG1 Fc with L234A/L235A; also called W3195-1.53.1-p4-uIgG1V320; W3195-p4-V320 antibody
# B4: W3195-1.53.1-p5-uIgG1LV320 (antibody, V domains shown)
# VH: B3 VH with N105Q, A106S
# VL: B3 VL
# notes: also called W3195-1.53.1-p5-uIgG1V320; W3195-p5-V320 antibody
# B5: W3195-1.53.1-p6-uIgG1LV320 (antibody, V domains shown)
# VH: B3 VH with N105T, A106S
# VL: B3 VL
# notes: also called W3195-1.53.1-p6-uIgG1V320; W3195-p6-V320 antibody
# B6: W3195-1.53.1-p7-uIgG1LV320 (antibody, V domains shown)
# VH: B3 VH with N105S, A106S
# VL: B3 VL
# notes: also called W3195-1.53.1-p7-uIgG1V320; W3195-p7-V320 antibody
# Legend:
# [1] = target: T1, Human P-cadherin on cells (human, UniProt P22223 108-829); assay: FACS on DU-145 cells
# T1 construct: whole, on cells; Endogenous P-cadherin on tumour cell lines; also called hPro1
# Description: (§1) Binding of the test antibodies to P-cadherin expressed on cells was determined by flow cytometry analysis. […] 1×10⁵ cells/well (100 μL) were added to each well of a 96-well U-plate (Corning, #3799) and centrifuged at 1500 rpm (Eppendorf, #5810R) for 5 minutes before removing the supernatant. Antibodies serially diluted in 1% BSA/1×PBS (Ca+/Mg+) were added at 100 μL/well to the pelleted cells and incubated at 4° C. for 1 hour. Anon-related hIgG1 antibody was used as an isotype control. Cells were washed two times with 180 μL/well of 1% BSA/1×PBS (Ca+/Mg+) by centrifugation at 1500 rpm for 5 minutes at 4° C. Pelleted cells were resuspended in 100 μL/well Alexa647 conjugated Goat anti-human IgG Fc (Jackson, #109-605-098) 1:500 diluted in 1% BSA/1×PBS (Ca+/Mg+) for 30 minutes at 4° C. in the dark. Cells were then washed two times as described above. After the final wash, cells were resuspended in 100 μL 1% BSA/1×PBS (Ca+/Mg+) and fluorescence values were measured with a FACS Canto II cytometer (BD Biosciences). The amount of cell surface bound anti-P-cadherin antibody was assessed by measuring the mean fluorescence (MFI). The FACS raw data were analyzed by FlowJo software, wells containing no antibody or secondary antibody only were used to establish background fluorescence. Binding EC50 values were obtained by the four-parameter non-linear regression analysis using GraphPad Prism6 software.
# [2] = target: T1, Human P-cadherin on cells; assay: cell-based or functional assay
# [3] = target: T1, Human P-cadherin on cells; assay: cell-based or functional assay; remark: listed apart in the source
# [4] = target: T1, Human P-cadherin on cells; assay: FACS on HCT-116 cells
# Description: as §1
# Binding of the antibodies to human P-cadherin expressed on cells was determined by flow cytometry analysis.
# [5] = target: T1, Human P-cadherin on cells; assay: FACS on DU-145 cells; remark: listed apart in the source
# Description: as §1
# T1 sequence (P22223 108-829): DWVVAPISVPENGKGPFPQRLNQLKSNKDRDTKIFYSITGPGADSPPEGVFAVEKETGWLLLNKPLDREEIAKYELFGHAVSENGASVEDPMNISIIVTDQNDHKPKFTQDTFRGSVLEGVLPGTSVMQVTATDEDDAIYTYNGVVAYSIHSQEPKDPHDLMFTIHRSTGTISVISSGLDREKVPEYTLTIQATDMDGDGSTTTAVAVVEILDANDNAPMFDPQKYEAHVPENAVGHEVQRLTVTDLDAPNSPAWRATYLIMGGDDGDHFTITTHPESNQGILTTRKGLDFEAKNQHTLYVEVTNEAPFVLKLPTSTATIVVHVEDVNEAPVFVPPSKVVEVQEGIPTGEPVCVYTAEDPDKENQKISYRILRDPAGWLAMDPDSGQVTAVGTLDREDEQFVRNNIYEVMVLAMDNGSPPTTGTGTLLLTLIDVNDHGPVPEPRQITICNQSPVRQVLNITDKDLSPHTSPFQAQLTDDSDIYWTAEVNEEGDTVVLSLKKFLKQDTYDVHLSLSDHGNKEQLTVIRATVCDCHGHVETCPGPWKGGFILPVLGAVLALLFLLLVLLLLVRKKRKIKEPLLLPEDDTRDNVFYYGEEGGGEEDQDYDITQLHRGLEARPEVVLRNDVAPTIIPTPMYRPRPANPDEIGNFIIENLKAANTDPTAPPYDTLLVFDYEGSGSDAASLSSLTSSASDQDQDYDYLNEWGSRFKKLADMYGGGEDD
Binder,EC50 [1] [nM],Max MFI [1],"internalization, Fab-ZAP CTG assay on HCC-1954, IC50 [2] [nM]","internalization, Fab-ZAP on HCC-1954, IC50 [3] [nM]","internalization, Fab-ZAP on HCC-1954, Max Inh % [3] [%]",EC50 [4] [nM],Max MFI [4],EC50 [5] [nM],Max MFI [5]
B1,0.05,2090,,,,,,,
B2,0.05,2140,0.02,,,,,,
B3,,,,0.063,80,0.14,4190,0.12,2160
B4,,,,0.058,82,0.17,4170,0.12,2240
B5,,,,0.063,79,0.14,4180,0.1,2290
B6,,,,0.059,79,0.14,4230,0.09,2280
